Experiments:
不含表位肽的载体蛋白(HBcAg) C149 = target: T1, 不含表位肽的载体蛋白(HBcAg) C149; experiment: Western blot
T1 construct: also called 载体蛋白C149; 突变型HBc
T1 chain: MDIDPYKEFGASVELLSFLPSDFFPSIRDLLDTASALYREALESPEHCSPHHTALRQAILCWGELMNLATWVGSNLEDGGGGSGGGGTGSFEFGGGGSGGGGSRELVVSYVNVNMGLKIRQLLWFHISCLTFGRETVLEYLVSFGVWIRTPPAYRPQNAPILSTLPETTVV

[1] = target: T2, 水痘-带状疱疹病毒(VZV) pOka毒株ORF9蛋白 (Varicella-Zoster Virus, pOka毒株, UniProt P09272 1-302); experiment: cell-based or functional assay
T2 sequence: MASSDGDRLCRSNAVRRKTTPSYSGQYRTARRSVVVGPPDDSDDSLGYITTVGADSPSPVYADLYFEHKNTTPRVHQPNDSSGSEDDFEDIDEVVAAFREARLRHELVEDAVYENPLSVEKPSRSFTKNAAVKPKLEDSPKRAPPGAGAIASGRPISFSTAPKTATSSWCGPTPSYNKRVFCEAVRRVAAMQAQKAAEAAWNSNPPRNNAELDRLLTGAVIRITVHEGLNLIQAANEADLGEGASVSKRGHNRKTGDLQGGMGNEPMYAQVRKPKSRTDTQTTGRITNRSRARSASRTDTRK

VZV-ORF9-肽12 = target: T3, VZV-ORF9-肽12 (Varicella-Zoster Virus, pOka毒株); experiment: indirect ELISA, peptide coated at 1μg/孔
T3 construct: Synthetic 20-mer of ORF9; also called 121-140aa
T3 peptide: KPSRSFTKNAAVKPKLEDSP

融合蛋白VZV-ORF9-F3 = target: T4, 融合蛋白VZV-ORF9-F3; experiment: Western blot, antibody at 2μg/mL
T4 chain: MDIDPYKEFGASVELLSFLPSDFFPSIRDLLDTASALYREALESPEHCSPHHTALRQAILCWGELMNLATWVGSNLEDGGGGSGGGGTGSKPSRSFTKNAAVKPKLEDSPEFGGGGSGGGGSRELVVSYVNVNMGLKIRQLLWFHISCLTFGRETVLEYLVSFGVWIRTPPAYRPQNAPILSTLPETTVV

VZV-ORF9-肽11 = target: T5, VZV-ORF9-肽11 (Varicella-Zoster Virus, pOka毒株); experiment: indirect ELISA, peptide coated at 1μg/孔
T5 construct: Synthetic 20-mer of ORF9; also called 111-130aa
T5 peptide: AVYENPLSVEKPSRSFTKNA

融合蛋白VZV-ORF9-F2-7 = target: T6, 融合蛋白VZV-ORF9-F2-7; experiment: Western blot, antibody at 2μg/mL
T6 chain: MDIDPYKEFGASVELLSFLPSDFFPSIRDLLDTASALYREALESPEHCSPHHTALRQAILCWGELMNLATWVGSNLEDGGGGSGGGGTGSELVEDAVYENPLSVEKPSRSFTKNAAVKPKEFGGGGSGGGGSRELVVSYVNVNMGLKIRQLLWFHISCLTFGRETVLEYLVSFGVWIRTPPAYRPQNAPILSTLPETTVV

融合蛋白VZV-ORF9-F2-4 = target: T7, 融合蛋白VZV-ORF9-F2-4; experiment: Western blot, antibody at 2μg/mL
T7 chain: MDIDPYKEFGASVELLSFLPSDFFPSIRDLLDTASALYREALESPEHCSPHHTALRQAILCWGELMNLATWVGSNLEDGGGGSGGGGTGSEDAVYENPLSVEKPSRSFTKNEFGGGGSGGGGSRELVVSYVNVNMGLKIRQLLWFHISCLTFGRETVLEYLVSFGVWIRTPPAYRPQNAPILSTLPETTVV

融合蛋白VZV-ORF9-F2-6 = target: T8, 融合蛋白VZV-ORF9-F2-6; experiment: Western blot, antibody at 2μg/mL
T8 chain: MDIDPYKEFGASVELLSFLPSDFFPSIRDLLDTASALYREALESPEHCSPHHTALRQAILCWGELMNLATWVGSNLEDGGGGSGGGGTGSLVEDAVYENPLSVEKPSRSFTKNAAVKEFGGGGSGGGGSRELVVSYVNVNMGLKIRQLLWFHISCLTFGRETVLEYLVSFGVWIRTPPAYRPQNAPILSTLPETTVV

融合蛋白VZV-ORF9-F2-5 = target: T9, 融合蛋白VZV-ORF9-F2-5; experiment: Western blot, antibody at 2μg/mL
T9 chain: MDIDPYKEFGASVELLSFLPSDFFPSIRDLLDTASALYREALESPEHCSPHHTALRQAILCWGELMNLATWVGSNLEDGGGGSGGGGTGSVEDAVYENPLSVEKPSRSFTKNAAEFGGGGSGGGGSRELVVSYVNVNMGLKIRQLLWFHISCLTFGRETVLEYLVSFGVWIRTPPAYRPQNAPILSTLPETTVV

融合蛋白VZV-ORF9-F2-3 = target: T10, 融合蛋白VZV-ORF9-F2-3; experiment: Western blot, antibody at 2μg/mL
T10 chain: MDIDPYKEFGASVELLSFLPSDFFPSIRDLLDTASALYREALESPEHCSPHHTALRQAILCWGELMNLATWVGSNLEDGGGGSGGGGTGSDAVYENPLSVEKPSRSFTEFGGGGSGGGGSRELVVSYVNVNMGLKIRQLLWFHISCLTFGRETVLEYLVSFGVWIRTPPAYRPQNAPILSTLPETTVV

融合蛋白VZV-ORF9-F2-8 = target: T11, 融合蛋白VZV-ORF9-F2-8; experiment: Western blot, antibody at 2μg/mL
T11 chain: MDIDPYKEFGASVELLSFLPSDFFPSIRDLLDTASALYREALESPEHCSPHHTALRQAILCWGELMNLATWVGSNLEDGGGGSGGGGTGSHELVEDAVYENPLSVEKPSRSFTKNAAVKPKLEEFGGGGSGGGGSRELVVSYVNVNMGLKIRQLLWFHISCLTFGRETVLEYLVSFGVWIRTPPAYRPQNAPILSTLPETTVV

融合蛋白VZV-ORF9-F2-2 = target: T12, 融合蛋白VZV-ORF9-F2-2; experiment: Western blot, antibody at 2μg/mL
T12 chain: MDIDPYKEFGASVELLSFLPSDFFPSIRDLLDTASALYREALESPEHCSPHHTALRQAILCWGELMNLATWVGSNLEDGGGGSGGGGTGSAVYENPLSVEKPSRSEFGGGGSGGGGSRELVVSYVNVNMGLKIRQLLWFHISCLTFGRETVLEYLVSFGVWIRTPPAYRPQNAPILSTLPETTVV

融合蛋白VZV-ORF9-F2-1 = target: T13, 融合蛋白VZV-ORF9-F2-1; experiment: Western blot, antibody at 2μg/mL
T13 chain: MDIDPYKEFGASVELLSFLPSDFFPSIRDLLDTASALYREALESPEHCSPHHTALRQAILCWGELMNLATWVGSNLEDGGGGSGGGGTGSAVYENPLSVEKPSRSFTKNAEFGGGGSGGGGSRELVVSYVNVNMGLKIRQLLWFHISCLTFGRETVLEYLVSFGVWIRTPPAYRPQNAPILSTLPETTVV

VZV-ORF9-肽9 = target: T14, VZV-ORF9-肽9 (Varicella-Zoster Virus, pOka毒株); experiment: indirect ELISA, peptide coated at 1μg/孔
T14 construct: Synthetic 20-mer of ORF9; also called 91-110aa
T14 peptide: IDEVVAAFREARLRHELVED

融合蛋白VZV-ORF9-F1 = target: T15, 融合蛋白VZV-ORF9-F1; experiment: Western blot, antibody at 2μg/mL
T15 construct: Expressed in E. coli, forms virus-like particles; Run on SDS-PAGE for the Western blot
T15 chain: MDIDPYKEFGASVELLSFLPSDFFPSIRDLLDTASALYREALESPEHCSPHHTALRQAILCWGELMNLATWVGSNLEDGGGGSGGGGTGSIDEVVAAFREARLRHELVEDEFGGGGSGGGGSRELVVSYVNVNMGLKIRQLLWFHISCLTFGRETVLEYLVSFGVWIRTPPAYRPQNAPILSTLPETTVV

B1: 抗VZV ORF9中和性单克隆抗体13A7 (antibody, IgG1, V domains shown)
VH: QVQLQQSGAVLARPGASVKLSCKASGYTFTTYWVQWIKQRPGQGLEWIGTIYPGDGDARYAQKFKGKATLTATESSSTAYMQLSSLASEDSAVYYCSRREVYDDYAWFAYWGQGTLVTVSA
VL: QIVLSQSPAILSASPGEKVTMTCRASSSVHYMHWYQQKSGFSPKPWIYATSNLASGVPARFSGSESGTSYSLTISRVEAEDAATYFCQQWSTSPPTFGSGTKLEIK
notes: also called 单抗13A7
binding result (不含表位肽的载体蛋白(HBcAg) C149): no binding (tested: 2μg/mL) | 中和效价 (ELISPOT中和实验, VZV pOka, ARPE-19细胞) [1]: 16 dilution 1:x of the 1 mg/mL stock | binding result (VZV-ORF9-肽12): binds | binding result (融合蛋白VZV-ORF9-F3): binds

B2: 抗VZV ORF9中和性单克隆抗体4E8 (antibody, IgG1, V domains shown)
VH: QVQLQQSGPELVKPGASVKMSCKTSGYTFTDDVISWVKQRTGQGLEWIGEINPGSGSIYYNEKFKGKATLTADKSSTTAYMQLSSLTSEDSAVYFCARSQYWGQGTTLTVSS
VL: DVVMTQTPLSLPVSLGDQASISCRSSQSLVHSNGNTYLHWYLQKPGQSPKLLIYKVSNRFSGVPDRFSGSGSGTDFTLKISRVEAEDLGVYFCSQSTHVPLTFGAGTKLELK
notes: also called 单抗4E8
binding result (不含表位肽的载体蛋白(HBcAg) C149): no binding (tested: 2μg/mL) | 中和效价 (ELISPOT中和实验, VZV pOka, ARPE-19细胞) [1]: 32 dilution 1:x of the 1 mg/mL stock | binding result (VZV-ORF9-肽11): binds | binding result (融合蛋白VZV-ORF9-F2-7): binds | binding result (融合蛋白VZV-ORF9-F2-4): binds | binding result (融合蛋白VZV-ORF9-F2-6): binds | binding result (融合蛋白VZV-ORF9-F2-5): binds | binding result (融合蛋白VZV-ORF9-F2-3): binds | binding result (融合蛋白VZV-ORF9-F2-8): binds | binding result (融合蛋白VZV-ORF9-F2-2): binds | binding result (融合蛋白VZV-ORF9-F2-1): binds

B3: 抗VZV ORF9中和性单克隆抗体4E9 (antibody, IgG1, V domains shown)
VH: QVQLQQSGAELMKPGASVKISCKATGYTFSRYWIEWVKLRPGHGLDWIGEILPGSKTNYNEKFKGKATFTADTSSNTAYMQLSSLTSEDSAVYYCAREGFVYWGQGTLVTVSA
VL: DIKMTQSPSSMYASLGERVTITCKASQDINSYLSWLQQKPGKSPKTLIYRANRLVDGVPSRFSGSGSGQDYSLTISSLEYEDMGIYYCLQFDEFPYTFGGGTKLEI
notes: also called 单抗4E9
binding result (不含表位肽的载体蛋白(HBcAg) C149): no binding (tested: 2μg/mL) | 中和效价 (ELISPOT中和实验, VZV pOka, ARPE-19细胞) [1]: 16 dilution 1:x of the 1 mg/mL stock | binding result (VZV-ORF9-肽9): binds | binding result (融合蛋白VZV-ORF9-F1): binds

— CN117164676A (UNIV XIAMEN; BEIJING WANTAI BIOLOGICAL PHARMACY ENTPR CO LTD, dated 2023)
